The text below walks through data of patent US20040197338A1 (published 2004).

For this experiment, the target named is T1, P^His (recombinant RSV A2 phosphoprotein (P) with a Histidine tag at its amino terminus, expressed from pETP … (respiratory syncytial virus, A2 strain, UniProt P03421 1-241)).
T1 construct: also called P^His protein; recombinant P protein; not shown: N-terminal Histidine tag from vector pET16b
Nature of the experiment: not described at this place (legend of FIG. 10).

On to KLCGMLLITE [peptide N4.10], for which the binding result was “binds”.
